Measurements from PMC3141782 (2011).

Molecular target: luteinizing hormone receptor (LHR) (Homo sapiens, UniProt P22888)
Assay: [125I]-hCG binding to transfected SKOV-3 cells

Chain of luteinizing hormone receptor (LHR) (P22888 27-699): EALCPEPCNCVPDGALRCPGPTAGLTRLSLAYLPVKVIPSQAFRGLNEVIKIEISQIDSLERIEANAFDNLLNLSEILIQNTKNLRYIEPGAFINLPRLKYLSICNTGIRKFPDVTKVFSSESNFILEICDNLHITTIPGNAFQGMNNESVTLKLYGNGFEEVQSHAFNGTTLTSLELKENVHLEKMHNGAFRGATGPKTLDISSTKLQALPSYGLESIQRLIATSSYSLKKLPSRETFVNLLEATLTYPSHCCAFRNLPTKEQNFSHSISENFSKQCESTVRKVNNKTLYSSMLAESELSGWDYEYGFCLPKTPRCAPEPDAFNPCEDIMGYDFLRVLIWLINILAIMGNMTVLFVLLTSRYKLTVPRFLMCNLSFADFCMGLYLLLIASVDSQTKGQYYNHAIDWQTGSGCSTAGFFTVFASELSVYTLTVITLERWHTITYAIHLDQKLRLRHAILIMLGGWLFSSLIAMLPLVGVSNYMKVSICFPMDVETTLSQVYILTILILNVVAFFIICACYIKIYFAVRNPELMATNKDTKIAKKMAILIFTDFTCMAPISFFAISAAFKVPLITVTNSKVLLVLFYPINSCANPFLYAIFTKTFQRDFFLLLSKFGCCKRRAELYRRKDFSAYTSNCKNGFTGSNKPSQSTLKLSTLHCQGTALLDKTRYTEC

- Kd: 0.3 nM
B1: human chorionic gonadotropin (protein)
chain 1: not shown
chain 2: SKEPLRPRCRPINATLAVEKEGCPVCITVNTTICAGYCPTMTRVLQGVLPALPQVVCNYRDVRFESIRLPGCPRGVNPVVSYAVALSCQCALCRRSTTDCGGPKDHPLTCDDPRFQDSSSSKAPPPSLPSPSRLPGPSDTPILPQ
modifications: 125I-labelled hCG
